Results taken from the RNAGym collection of RNA variant scans (doi:10.1093/molbev/msab373).

B1: Azoarcus group I ribozyme (parent)
chain: GUGCCUUGCGCCGGGAAACCACGCAAGGGAUGGUGUCAAAUUCGGCGAAACCUAAGCGCCCGCCCGGGCGUAUGGCAACGCCGAGCCAAGCUUCGGCGCCUGCGCCGAUGAAGGUGUAGAGACUAGACGGCACCCACCUAAGGCAAACGCUAUGGUGAAGGCAUAGUCCAGGGAGUGGCGAAAGUCACACAAACCGG

Variants of: B1
Assay: reverse-splicing fitness (ratio to wild type); higher = more active; in vitro selection; Mg2+ level not given
Procedure, shortened: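 An in vitro group I ribozyme library with randomized positions was T7-transcribed and gel-purified. In triplicate, 10 pmol RNA in EPPS pH 7.5 was reacted with 50 pmoles of a 30-nt RNA substrate for 1 h at 37 °C across several added MgCl2 levels (1–48 mM), then stopped with EDTA. Products were reverse transcribed from a substrate-complementary primer, PCR-amplified and sequenced (HiSeq 4000). Fitness is a variant's read proportion after selection over that before, normalised to wild type.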

Variant	reverse-splicing fitness
GUGCCUUGCGCCGGGAAACCACGCAAGGGAUGGUGUCAAAUUCGGCGAAACCUAAGCGCCCGCCCGGGCGUAUGGCAACGCUGAGCCAAGCUUCGGCGCCUGCGCCGAUGGAGGUGUAGCGACUAGACGGCACCCACCUAAGGCUAACGAUAUGGUGAAGGCAUAGUCGAGGGAGCGGCGAAAGUCACACAAACCGG [C82U A111G A120C A145U C150A C169G U176C]	0.0112
GUGCCUUGCGCCGGGAAACCACGCAAGGGAUGGUGUCAAAUUCGGCGAAACCUAAGCGCCCGCCCGGGCGUAUGGCAACGCUGAGCCAAGCUUCGGCGCCUGCGCCGAUGGAGGUGUAGCGACUAGACGGCACCCACCUAAGGCUAACGAUAUGGUGAAGGCAUAGUCGAGGGAGGGGCGAAAGUCACACAAACCGG [C82U A111G A120C A145U C150A C169G U176G]	0.00457
GUGCCUUGCGCCGGGAAACCACGCAAGGGAUGGUGUCAAAUUCGGCGAAACCUAAGCGCCCGCCCGGGCGUAUGGCAACGCUGAGCCAAGCUUCGGCGCCUGCGCCGAUGGAGGUGUAGCGACUAGACGGCACCCACCUAAGGCUAACGAUAUGGUGAAGGCAUAGUCGAGGGAGAGGCGAAAGUCACACAAACCGG [C82U A111G A120C A145U C150A C169G U176A]	0.0153
GUGCCUUGCGCCGGGAAACCACGCAAGGGAUGGUGUCAAAUUCGGCGAAACCUAAGCGCCCGCCCGGGCGUAUGGCAACGCUGAGCCAAGCUUCGGCGCCUGCGCCGAUGGAGGUGUAGCGACUAGACGGCACCCACCUAAGGCUAACGAUAUGGUGAAGGCAUAGUCCAGGGAGAGGCGAAAGUCACACAAACCGG [C82U A111G A120C A145U C150A U176A]	0.0116
GUGCCUUGCGCCGGGAAACCACGCAAGGGAUGGUGUCAAAUUCGGCGAAACCUAAGCGCCCGCCCGGGCGUAUGGCAACGCUGAGCCAAGCUUCGGCGCCUGCGCCGAUGGAGGUGUAGCGACUAGACGGCACCCACCUAAGGCUAACGAUAUGGUGAAGGCAUAGUCCAGGGAGGGGCGAAAGUCACACAAACCGG [C82U A111G A120C A145U C150A U176G]	0.0049
GUGCCUUGCGCCGGGAAACCACGCAAGGGAUGGUGUCAAAUUCGGCGAAACCUAAGCGCCCGCCCGGGCGUAUGGCAACGCUGAGCCAAGCUUCGGCGCCUGCGCCGAUGGAGGUGUAGCGACUAGACGGCACCCACCUAAGGCUAACGAUAUGGUGAAGGCAUAGUCCAGGGAGCGGCGAAAGUCACACAAACCGG [C82U A111G A120C A145U C150A U176C]	0.0125
GUGCCUUGCGCCGGGAAACCACGCAAGGGAUGGUGUCAAAUUCGGCGAAACCUAAGCGCCCGCCCGGGCGUAUGGCAACGCUGAGCCAAGCUUCGGCGCCUGCGCCGAUGGAGGUGUAGCGACUAGACGGCACCCACCUAAGGCUAACGAUAUGGUGAAGGCAUAGUCUAGGGAGAGGCGAAAGUCACACAAACCGG [C82U A111G A120C A145U C150A C169U U176A]	0.0139
GUGCCUUGCGCCGGGAAACCACGCAAGGGAUGGUGUCAAAUUCGGCGAAACCUAAGCGCCCGCCCGGGCGUAUGGCAACGCUGAGCCAAGCUUCGGCGCCUGCGCCGAUGGAGGUGUAGCGACUAGACGGCACCCACCUAAGGCUAACGAUAUGGUGAAGGCAUAGUCUAGGGAGGGGCGAAAGUCACACAAACCGG [C82U A111G A120C A145U C150A C169U U176G]	0.00404
GUGCCUUGCGCCGGGAAACCACGCAAGGGAUGGUGUCAAAUUCGGCGAAACCUAAGCGCCCGCCCGGGCGUAUGGCAACGCUGAGCCAAGCUUCGGCGCCUGCGCCGAUGGAGGUGUAGCGACUAGACGGCACCCACCUAAGGCUAACGAUAUGGUGAAGGCAUAGUCUAGGGAGCGGCGAAAGUCACACAAACCGG [C82U A111G A120C A145U C150A C169U U176C]	0.0132
GUGCCUUGCGCCGGGAAACCACGCAAGGGAUGGUGUCAAAUUCGGCGAAACCUAAGCGCCCGCCCGGGCGUAUGGCAACGCUGAGCCAAGCUUCGGCGCCUGCGCCGAUGGAGGUGUAGCGACUAGACGGCACCCACCUAAGGCUAACGAUAUGGUGAAGGCAUAGUCAAGGGAGCGGCGAAAGUCACACAAACCGG [C82U A111G A120C A145U C150A C169A U176C]	0.00758
GUGCCUUGCGCCGGGAAACCACGCAAGGGAUGGUGUCAAAUUCGGCGAAACCUAAGCGCCCGCCCGGGCGUAUGGCAACGCUGAGCCAAGCUUCGGCGCCUGCGCCGAUGGAGGUGUAGCGACUAGACGGCACCCACCUAAGGCUAACGAUAUGGUGAAGGCAUAGUCAAGGGAGAGGCGAAAGUCACACAAACCGG [C82U A111G A120C A145U C150A C169A U176A]	0.0128
GUGCCUUGCGCCGGGAAACCACGCAAGGGAUGGUGUCAAAUUCGGCGAAACCUAAGCGCCCGCCCGGGCGUAUGGCAACGCUGAGCCAAGCUUCGGCGCCUGCGCCGAUGGAGGUGUAGCGACUAGACGGCACCCACCUAAGGCUAACGAUAUGGUGAAGGCAUAGUCAAGGGAGGGGCGAAAGUCACACAAACCGG [C82U A111G A120C A145U C150A C169A U176G]	0.00469
GUGCCUUGCGCCGGGAAACCACGCAAGGGAUGGUGUCAAAUUCGGCGAAACCUAAGCGCCCGCCCGGGCGUAUGGCAACGCUGAGCCAAGCUUCGGCGCCUGCGCCGAUGGAGGUGUAGCGACUAGACGGCACCCACCUAAGGCGAACGCUAUGGUGAAGGCAUAGUCUAGGGAGGGGCGAAAGUCACACAAACCGG [C82U A111G A120C A145G C169U U176G]	0.00401
GUGCCUUGCGCCGGGAAACCACGCAAGGGAUGGUGUCAAAUUCGGCGAAACCUAAGCGCCCGCCCGGGCGUAUGGCAACGCUGAGCCAAGCUUCGGCGCCUGCGCCGAUGGAGGUGUAGCGACUAGACGGCACCCACCUAAGGCGAACGCUAUGGUGAAGGCAUAGUCUAGGGAGCGGCGAAAGUCACACAAACCGG [C82U A111G A120C A145G C169U U176C]	0.0146
GUGCCUUGCGCCGGGAAACCACGCAAGGGAUGGUGUCAAAUUCGGCGAAACCUAAGCGCCCGCCCGGGCGUAUGGCAACGCUGAGCCAAGCUUCGGCGCCUGCGCCGAUGGAGGUGUAGCGACUAGACGGCACCCACCUAAGGCGAACGCUAUGGUGAAGGCAUAGUCCAGGGAGGGGCGAAAGUCACACAAACCGG [C82U A111G A120C A145G U176G]	0.00519
